We go through two molecules from US11858972B2, “Micropeptides and uses thereof” (FUNDACIÓ PRIVADA INSTITUT D'INVESTIGACIÓ ONCOLÒGICA DE VALL …, priority 2018, dated 2024).

For assay [1], the system named is EMT regulators and adhesion factors in MIA PaCa-2 pancreatic cancer cell line. Put plainly: EMT related gene expression by qPCR in MIA PaCa-2. It counts as cell-based. To be noted: MIA PaCa-2, vs empty vector. An excerpt:
(§1) FIG. 15. Expression of the micropeptide of SEQ ID NO: 2 induces loss of mesenchymal identity in IMR90 (A), MIA PaCa-2 (B) and BxPC-3 (C) cell lines. mRNA levels of the indicated genes measured by qPCR. Values are relative to cells expressing the empty vector as a control. *P<0.05, **P<0.01, ***P<0.001 using Student's t-test for statistics. Error bars represent standard error of n=3 technical replicates.
(§2) Total RNA was extracted with Trizol® and treated with TURBO™ DNase following provider's recommendations. 1 μg of RNA was retrotranscribed using iScript™ cDNA Synthesis Kit (BioRad). Gene expression was analysed by quantitative real time PCR using PowerUp SYBR Green Master Mix (Thermo Fisher Scientific) in the 7900HT Fast Real-Time PCR System (Applied Biosystems). Cycle threshold (Ct) values were normalized to GAPDH.
In general terms: Real-time PCR tracks product formation cycle by cycle.

Another assay relates to BxPC-3 cells. The experiment in a line: Wound healing assay. Format: cell-based. As to conditions: BxPC-3, vs empty vector. The procedure:
(§3) FIG. 17. The micropeptide of SEQ ID NO: 2 impairs migration capability of pancreatic cancer cell lines. Wound healing assay was performed in MIA PaCa-2 (A) and BxPC-3 (B) cells infected with MIDORI or empty vector. Phase contrast images show the wound at the indicated time points after the scratch was performed.
(§4) MIA PaCa-2 and BxPC-3 cells were trypsinized, counted, and 400,000 cells/well were seeded in 6-well plates. Next day, a pipette tip was used to scratch the surface of cell monolayer, forming a wound. An Olympus CeIIR microscope equipped with a Hamamatsu C9100 camera was used to follow the closure of the wound.

Another assay deals with MIA PaCa-2 cells. Put plainly: Wound healing assay. Format: cell-based. As to conditions: MIA PaCa-2, vs empty vector. The procedure: as §3, §4
The test system of assay [2] is PDAC pancreatic cancer cells co-cultured with CAFs. The experiment in a line: CAFs pro-invasive activity, co-culture with PDAC cells in Matrigel coated inserts. It counts as cell-based, mice. As to conditions: micropeptide expressed in CAFs in bottom compartment, PDAC cells co-cultured 24 h. As to the method: FIG. 19. Expression of the micropeptide of SEQ ID NO: 2 reduces pro-tumoral activity of mCAFs cells. (A) Invasion of WT PDAC pancreatic cancer cells across matrigel-covered inserts where mCAFs expessing the micropeptide of SEQ ID NO: 2 or empty vector were seeded in the bottom compartment of the Boyden chambers. Representative pictures of invading cells 24 hours after seeding. (B) Relative number of invading cells.±SD (n=3 technical replicates), as relative to invading cells in the empty vector conditions.
BxPC-3 and A549 cell lines were cultured in RPMI supplemented with 10% of FBS and penicillin-streptomycin. Patient derived-H10 skin squamous cell carcinoma cell line was cultured in DMEM-F12 supplemented with B27 and penicillin-streptomycin. Cancer associated fibroblasts (CAFs) and PDAC cell lines were derived from LSL^−KrasG12D/+;LSL-Trp53R172H/+;Pdx-1-Cre mice and cultured in DMEM-F12 supplemented with 10% FBS and penicillin-streptomycin. All the other cell lines were cultured in DMEM supplemented with 10% of FBS and penicillin streptomycin. Cultures were routinely tested for mycoplasma and were always negative.
In order to test CAFs pro-invasive activity, 40.000 CAFs/well were seeded in 24-well plates. 48 h later, PDAC cells were trypsinized, counted, and 20.000 cells were seeded in the upper compartment of Matrigel® coated inserts that were placed over CAFs containing wells. […]

The subject of assay [3] is EMT regulators and adhesion factors in BxPC-3 pancreatic cancer cell line. The experiment in a line: EMT related gene expression by qPCR in BxPC-3. It counts as cell-based. As to conditions: BxPC-3, vs empty vector.
Description: as §1, §2

Assay [4] relates to MDA-MB-231 breast cancer cell line. Put plainly: Invasion assay (Boyden chamber, Matrigel). It counts as cell-based, human. As to conditions: MDA-MB-231, 24 hours after seeding, vs empty vector. As to the method:
FIG. 22. Expression of the micropeptide of SEQ ID NO: 2 reduces cell invasion of breast cancer cells. (A) Invasion of MDA-MB-231 breast cancer cells transduced with micropeptide of SEQ ID NO: 2 or empty vector across matrigel-covered inserts. Representative pictures of invading cells 24 hours after seeding. (B) Relative number of invading cells±SD (n=3 technical replicates), as relative to invading cells in the empty vector conditions. * p<0.05, using Student's t-test.
(§5) BxPC-3, MDA-MB-231, A549 and H10 cell lines were trypsinized, counted, and 20.000 cells/well were seeded in triplicate in a Corning® cell culture insert (Boyden chamber) in which the porous membrane is coated with a layer of Matrigel® to mimic an extra cellular matrix (ECM). Cells were allowed to invade through the coated membrane for 24 hours in the cell incubator at 37° C. After the incubation time, culture inserts were fixed in methanol 5 minutes at RT and stained using Crystal Violet 20 minutes at RT. The excess of Crystal Violet staining was removed washing with PBS and pictures of the chambers were taken using an Olympus CeIIR microscope. Invading cells were counted using ImageJ and fold change was calculated normalizing to the control.

A further assay relates to BxPC-3 cell line. Put plainly: Invasion assay (Boyden chamber, Matrigel). Format: cell-based. To be noted: BxPC-3, 24 hours after seeding, vs empty vector. The procedure: FIG. 18. Expression of the micropeptide of SEQ ID NO: 2 impairs cell invasion in pancreatic cancer cells. (A) Invasion of BxPC-3 cells transduced with micropeptide of SEQ ID NO: 2 or empty vector across matrigel-covered inserts. Representative pictures of invading cells 24 hours after seeding. (B) Relative number of invading cells. Bars represent the average of two independent experiments±SD (n=2), as relative to invading cells in the empty vector conditions. * p<0.05, using Student's t-test.
as §5

For assay [5], the system named is SLUG, ZEB1, ZEB2, VIMENTIN, E-CADHERIN and CYTOKERATIN-5 in MDA-MB-231. The experiment in a line: Mesenchymal and epithelial gene expression by qPCR in MDA-MB-231. Format: cell-based, human. As to conditions: MDA-MB-231, vs empty vector. As to the method:
FIG. 21. Overexpression of the micropeptide of SEQ ID NO: 2 induces loss of mesenchymal identity. mRNA levels of the indicated genes were measured by qPCR in MDA-MB-231 cell line. Values are relative to cells expressing the empty vector as a control. *P<0.05; **P<0.01; ***P<0.001 using Student's t-test for statistics. Error bars represent standard error of n=3 technical replicates.
as §2

Assay [6] deals with EMT regulators and adhesion factors in human primary fibroblasts (IMR90). The experiment in a line: EMT related gene expression by qPCR in IMR90. Format: cell-based. As to conditions: vs empty vector.
Description: as §1, §2

Assay [7] concerns EMT regulators, adhesion factors and METALLOPROTEINASE-2 in murine pancreatic cancer associated fibroblasts (mCAFs). The experiment in a line: EMT related gene expression by qPCR in mCAFs. It counts as cell-based. As to conditions: vs empty vector. The procedure: FIG. 16. Overexpression of the micropeptide of SEQ ID NO: 2 induces loss of mesenchymal identity. mRNA levels of the indicated genes were measured by qPCR in mCAFs (A-B) cells. Values are relative to cells expressing the empty vector as a control. *P<0.05; **P<0.01; ***P<0.001 using Student's t-test for statistics. Error bars represent standard error of n=3 technical replicates.
as §2

A further assay deals with BAX, BAK and BCL-2. The experiment in a line: Apoptosis-related gene expression by qPCR in HCT116. To be noted: HCT116 colorectal cancer cell line. Format: cell-based, human. As to the method: (§6) FIG. 24. Overexpression of the micropeptide of SEQ ID NO: 3 induces p21 upregulation and a pro-apoptotic program (A) qPCR analysis of p21 expression in HCT116 and A549 cancer cell lines upon SEQ ID NO: 3 overexpression. (B) Western blot analysis of p21 protein in A549 SEQ ID NO: 3-overexpressing cells. Cells treated with Nutlin-3 (10 μM) were used as positive control for p21 upregulation. (C) qPCR analysis of the indicated apoptosis-related genes in SEQ ID NO: 3-overexpressing HCT116 cells.
as §2

Another assay deals with A549, human lung cancer. The experiment in a line: Cell death after retroviral overexpression (phase contrast images). It counts as cell-based. An excerpt:
(§7) FIG. 23. Overexpression of the micropeptide of SEQ ID NO: 3 in cancer cell lines. (A) Analysis of SEQ ID NO: 3 overexpression by qPCR in A459 cells. (B) Detection of SEQ ID NO: 3 micropeptide expression in A459 cells by Western blot. (C) Phase contrast images of the indicated cell lines after SEQ ID NO: 3 overexpression.

The subject of assay [8] is HCT116, human colorectal cancer. The assay is described as above. Format: cell-based.
Description: as §7

For assay [9], the system named is p21. Put plainly: p21 expression by qPCR in A549. To be noted: A459 cells. It counts as cell-based, human. As to the method: as §6, §2
In assay [10] the test system is p21. Put plainly: p21 expression by qPCR in HCT116. Format: cell-based, human. To be noted: HCT116 cells. The procedure:
as §6, §2

The subject of another assay is p21 protein. Put plainly: p21 protein by Western blot in A549. It counts as cell-based, human. The procedure:
as §6
Cells pellets (4-5*10^6 cells) were homogenized in medium-salt lysis buffer (150 mM NaCl, 50 mM Tris pH 8, 1% NP40 and protein inhibitors cocktail). 50 μg of protein was loaded per lane in a 12% acrylamide gel and electrophoresed in Tris-Glycine SDS Running Buffer. The following antibodies were used: Anti-HA-Tag (Abcam, 1:5000), Anti-p53 (Santa Cruz, 1:1000), Anti-p21 (Thermo Fisher, 1:1000), Anti-GAPDH (Thermo Fisher, 1:5000).

B1: SEQ ID NO: 2: 64-amino acid micropeptide encoded by ZEB2 antisense 1 (ZEB2AS1) long non-coding RNA (protein, listed as Homo sapiens)
chain: MVRRKSMKKPRSVGEKKVEAKKQLPEQTVQKPRQECREAGPLFLQSRRETRDPETRATYLCGEG
In the case of B1, the “expression of EMT regulators SNAIL, SLUG, ZEB1, ZEB2, TWIST1 and VIMENTIN (if expressed) and adhesion factors COLLAGEN I, COLLAGEN IV, CD44 and FIBRONECTIN” value in assay [1], in [3], in assay [6] and in assay [7] was “downregulation” each time. The “migration capability in wound healing assays” value in the assay with BxPC-3 cells and in the assay with MIA PaCa-2 cells was “decreased migration capability” in each case. Also, the “pancreatic cancer cell invasion (non-cell autonomous)” value in assay [2] is given as “reduces pancreatic cancer cell invasion”. Also, in assay [4], the invasion capability result is “decreased invasion capability”. Besides, in the assay with BxPC-3 cell line, the invasion result was “decreased invasion”. Further, the “expression of epithelial markers E-CADHERIN and CYTOKERATIN-5” value in assay [5] is on record as “upregulation”. Moreover, the “expression of the EMT regulators SLUG, ZEB1, ZEB2 and VIMENTIN” value in [5] is reported as “downregulation”. Also, the “expression of METALLOPROTEINASE-2” value in assay [7] is reported as “downregulation”.

B2: SEQ ID NO: 3: 78-amino acid micropeptide encoded by the first exon of LINC0086 lncRNA (protein, listed as Homo sapiens)
chain: MAASAALSAAAAAAALSGLAVRLSRSAAARGSYGAFCKGLTRTLLTFFDLAWRLRMNFPYFYIVASVMLNVRLQVRIE
B2: the “expression of the antiapoptotic gene BCL-2” value in the assay on BAX, BAK and BCL-2 is on record as “downregulation”. The “expression of the pro-apoptotic genes BAX and BAK” value with BAX, BAK and BCL-2 was “upregulation”. In addition, the cell death result in the assay on A549, human lung cancer was “massive cell death”; in assay [8] it was “massive cell death”. Further, the “p21 expression (qPCR)” value in the assay on p21 [9] and in the assay with p21 [10] was “substantial p21 upregulation” throughout. The p21 protein levels entry in the assay with p21 protein is listed as “increased p21 protein levels”.
